# Assay results from PMC10520873, “Biochemical investigation of the tryptophan biosynthetic enzyme anthranilate phosphoribosyltransferase in plants” (The Journal of Biological Chemistry, 2023).
# B1: PpPAT1 (Physcomitrium patens) (protein)
# chain: MAAALASQRTWLPSSSVGPFRGSFATAPASSPRVLGVPRKFAVESGKWEVLVRNVRAQSSTVTVPARTLSIPQVLEQLIQGTNLTQAQTEEVMETLLADANPAIIGAFLALLRAKGETLDEVTGLASAMLSRAIPVRTVPGSLDIVGTGGDGANTVNISTGSCILAAACGAKVAKHGSRSSSSACGSADVLETLGVAIDLGPEGVAKCVEDVGVGFMFAPTYHPAMKVVAPVRRSLKIKTAFNILGPMLNPSRAPHSIVGVYHDNLVEKMAKILQHFGTKRTLVVHCHGLDEMSPLGGGRVLEVTQDKIESFVFDPLNFGIPRCTLEDLKGGNADFNAKSLRNVFAGEPGPIADSLILNAAAGIMACGLVKDLGEGVSLARDVLRSGRANTVLDNWISLSQKLKAEEVSE
# notes: codon-optimized gene in pET28a, His-tagged, E. coli BL21 (DE3), Ni-NTA
# Substrate: Nc1c(O)cccc1C(=O)O
# Test: purified protein
# Type: biochemical, Physcomitrium patens
# Conditions: 1 mM PR-PPi, 45 mM imidazole HCl pH 7.4, 30 °C, 3-HAA 0-0.5 mM
protein,measurement,value
B1,Km,99.71 ± 11.2 µM
same,kcat,0.0533 ± 0.00167 s⁻¹
same,kcat/Km,537 M⁻¹ s⁻¹
